In a protein production outcome set (Wang et al. 2014):

Experiment: label from the status in PepcDB records

MNMDPLIYVAALLFTGLLAGLATGLLGVGGGFIIAPVLFFLMEAGGTPPDIAIRTAFGTSLAIILPTALSGAHSHYRRKCVDSRIGITMGVLGACGSVAGVFTASASPAYVLRAFFGVLLILVSAQLLLSSRISPSGFGRNAAFPLGFLAGFLSGLLGIGGGVVLVPLLVMVAGFDVLEAVGTSSLVIAFTAASGTISYIFTGPGGPFTVGYVNLLQFLLVIVMSVPSSRLGALIAHRVDVRYIRYIFIILLLFTGLKMLL
protein production: failed

MNMIRRLTALTLSLMLAGGPALAQTVVIVRHGEKVSPNGDPDLSDAGKARAQALAAALAGARVSTVLATPLKRTQQTAQPTADAAGLVIRTIALDGGVPAHAQRVAEVARQAPKDATVLIVGHSNTVGEIARALGDAAPSPVTDCDYDQMTIISLDAPTARTLHARYGAPTLPCPTN
protein production: failed

MNNKDLWIKEEIIWSEHKCIRFAAGGYEALIIPDVGGNVVELKDTNKGVTILRTPKKDLKFEDFKNRPQVYGLPVLFPPNRIDDGTFKLGDKTYKFPINEAKNNNYIHGFIKNSKWTVHKKKIDQDKALVEVVFDFTKENEAYKYFSHEFQFKLSYELSSKGLKQTTSVVNLSSEEMPLSVGYHSAFNVPFIEGSEDSNCRVKISIDKFWKQDSRNLPTGESFAPTGEQKEYLENGVAVASHPIESLFSLKDIDVNGKTFRGACIEDASKNTRVVYEMSSEYKYLVIWNDMGDKKYACIEPQTSIINSPNVKLDRSVSGFKTLKPNESWSGVCKLYIENM
protein production: not failed

MNNLFVYCEIEEGIVADVSLELLTKGRSLANELNCQLEAVVAGTGLKEIEKQILPYGVDKLHVFDAEGLYPYTSLPHTSILVNLFKEEQPQICLMGATVIGRDLGPRVSSALTSGLTADCTSLEIGDHEDKKEGKVYKNLLYQIRPAFGGNIVATIVNPEHRPQMATVREGVMKKEIVSPAYQGEVIRHDVKKYVADTDYVVKVIERH
protein production: not failed

MNNLIITTRQSPVRLLVDYVATTILWTLFALFIFLFAMDLLTGYYWQSEARSRLQFYFLLAVANAVVLIVWALYNKLRFQKQQHHAAYQYTPQEYAESLAIPDELYQQLQKSHRMSVHFTSQGQIKMVVSEKALVRA
protein production: failed

MNNLQTKFPHIAIKLNEPLSKYTYTKTGGAADVFVMPKTIEEAQEVVAYCHQNKIPLTILGNGSNLIIKDGGIRGVILHLDLLQTIERNNTQIVAMSGAKLIDTAKFALNESLSGLEFACGIPGSIGGALHMNAGAYGGEISDVLEAATVLTQTGELKKLKRSELKAAYRFSTIAEKNYIVLDATFSLALEEKNLIQAKMDELTAAREAKQPLEYPSCGSVFKRPPGHFAGKLIQDSGLQGHIIGGAQVSLKHAGFIVNIGGATATDYMNLIAYVQQTVREKFDVELETEVKIIGEDK
protein production: not failed

MNNNDLFQASRRRFLAQLGGLTVAGMLGPSLLTPRRATAAQAATDAVISKEGILTGSHWGAIRATVKDGRFVAAKPFELDKYPSKMIAGLPDHVHNAARIRYPMVRVDWLRKRHLSDTSQRGDNRFVRVSWDEALDMFYEELERVQKTHGPSALLTASGWQSTGMFHNASGMLAKAIALHGNSVGTGGDYSTGAAQVILPRVVGSMEVYEQQTSWPLVLQNSKTIVLWGSDLLKNQQANWWCPDHDVYEYYAQLKAKVAAGEIEVISIDPVVTSTHEYLGREHVKHIAVNPQTDVPLQLALAHTLYSENLYDKNFLANYCVGFEQFLPYLLGEKDGQPKDAAWAEKLTGIDAETIRGLARQMAANRTQIIAGWCVQRMQHGEQWAWMIVVLAAMLGQIGLPGGGFGFGWHYNGAGTPGRKGVILSGFSGSTSIPPVHDNSDYKGYSSTIPIARFIDAILEPGKVINWNGKSVKLPPLKMCIFAGTNPFHRHQQINRIIEGLRKLETVIAIDNQWTSTCRFADIVLPATTQFERNDLDQYGNHSNRGIIAMKQVVPPQFEARNDFDIFRELCRRFNREEAFTEGLDEMGWLKRIWQEGVQQGKGRGVHLPAFDDFWNNKEYVEFDHPQMFVRHQAFREDPDLEPLGTPSGLIEIYSKTIADMNYDDCQGHPMWFEKIERSHGGPGSQKYPLHLQSVHPDFRLHSQLCESETLRQQYTVAGKEPVFINPQDASARGIRNGDVVRVFNARGQVLAGAVVSDRYAPGVARIHEGAWYDPDKGGEPGALCKYGNPNVLTIDIGTSQLAQATSAHTTLVEIEKYNGTVEQVTAFNGPVEMVAQCEYVPASQVKS
protein production: failed
